The values below come from patent publication US20150141617A1, “PRODUCTION AND PURIFICATION OF ACTIVE EUKARYOTIC FORMYLGLYCINEGENERATING ENZYME (FGE) VARIANTS” (Universität Bielefeld, priority 2013, published 2015).

The star is where a group is joined. Decanoyl = CCCCCCCCCC(=O)*; CH2Cl = ClC*

The target of series [1] is T1, recombinant furin (rFurin) (Homo sapiens, UniProt P09958).
T1 construct: purchased NEB
The experiment in a line: In vitro furin cleavage assay. The class given is biochemical. The note with it: 25 μM inhibitor, HT1080 cell lysate. On the procedure:
(§1) CHO-FD11 cells stably expressing FGE-His6 or HT1080 cells were grown for 24 h, and cells and medium were harvested. For treatment with furin in vitro cell pellets were resuspended in HEPES pH 7.5 buffer containing 1 mM CaCl2 and 0.5% Triton X-100 and lysed in the absence of protease inhibitors by sonication on ice. Appropriate amounts of cell lysate and medium were incubated for 3 h at 25° C. with 4 units of furin (NEB) with or without 25 μM decanoyl-RVKR-CMK (Alexis biochemicals) as indicated in the figures. For in vivo treatment, HT1080 Tet-On cells were transiently transfected with pBI-FGE-HA and 4 h post-transfection, the medium was replenished with medium containing 20 ng/mL doxycycline and various concentrations of decanoyl-RVKR-CMK or only DMSO as a carrier control. The cells and medium were collected after 16 h of induction/treatment for further analysis. The samples were boiled in Laemmli buffer and analyzed by SDS-PAGE and western blotting with FGE antiserum.
In mammals, the proproteinconvertase family comprises nine enzymes that differ in their substrate specificity and tissue-specific expression and/or subcellular localization (17). Furin is the best characterized mammalian PC with a ubiquitous tissue distribution and it is the major convertase in the secretory pathway. To analyze the role of furin in the processing of FGE the inventors expressed FGE in cells that are deficient for furin. […] When cell homogenate and medium from CHO-FD11 cells stably expressing FGE-His were treated with commercially available recombinant furin (rFurin), almost half the amount of FGE was processed, as observed for both cells and medium (FIG. 12D). Using this in vitro furin cleavage assay, the inventors also examined whether endogenous intracellular FGE is susceptible to furin processing. Indeed, rFurin readily converted almost 90% of endogenous fl-FGE from untransfected HT1080 cells to the truncated form (FIG. 12E).
Although FGE is an ER resident protein, it lacks a canonical ER-retention motif. […] In this study, using the in vitro furin cleavage assay, the inventors assessed furin-mediated processing of the FGE-ERp44 covalent complex (FIG. 8). Homogenates, pre-treated with NEM (to prevent post-lysis disulfide shuffling), from HT1080 cells expressing either FGE alone or FGE plus myc-ERp44 together from a bi-directional promoter were incubated with rFurin and analyzed by SDS-PAGE under non-reducing conditions. Upon overexpression, intracellular FGE via its N-terminal cysteines (C50 and C52) forms covalently cross-bridged homodimers (FIG. 15, lane 1 and 2) and, additionally, FGE-ERp44 heterodimers when co-expressed with ERp44 (FIG. 15, lane 4 and 6) as previously observed (13). Removal of the N-terminus by furin cleavage should lead to a disappearance of the homo-/hetero-dimeric FGE forms, which serves as an indicator for accessibility of the furin cleavage motif in FGE.

Series [2] deals with PCs (furin or furin-like convertases). The series can be described thus: Treatment of HT1080 Tet-On cells expressing FGE with RVKR-CMK inhibitor. The note with it: increasing concentrations of the inhibitor, 16 h. The series is classed as cell-based, human. How it is done: as §1
In order to verify that the N-terminus of FGE containing the RYSR motif is subject to processing by furin or furin-like convertases, the inventors studied the secretion profile of FGE in cells in the presence of decanoyl-RVKR-ChloroMethylKetone (CMK), an inhibitor for PCs (FIG. 12A). […]

Series [3] has as its target T2, steroid sulfatase (STS), expressed from pBI-STS in MSDi Tet-On cells (UniProt P08842 22-583, limits assumed).
T2 sequence (looked up): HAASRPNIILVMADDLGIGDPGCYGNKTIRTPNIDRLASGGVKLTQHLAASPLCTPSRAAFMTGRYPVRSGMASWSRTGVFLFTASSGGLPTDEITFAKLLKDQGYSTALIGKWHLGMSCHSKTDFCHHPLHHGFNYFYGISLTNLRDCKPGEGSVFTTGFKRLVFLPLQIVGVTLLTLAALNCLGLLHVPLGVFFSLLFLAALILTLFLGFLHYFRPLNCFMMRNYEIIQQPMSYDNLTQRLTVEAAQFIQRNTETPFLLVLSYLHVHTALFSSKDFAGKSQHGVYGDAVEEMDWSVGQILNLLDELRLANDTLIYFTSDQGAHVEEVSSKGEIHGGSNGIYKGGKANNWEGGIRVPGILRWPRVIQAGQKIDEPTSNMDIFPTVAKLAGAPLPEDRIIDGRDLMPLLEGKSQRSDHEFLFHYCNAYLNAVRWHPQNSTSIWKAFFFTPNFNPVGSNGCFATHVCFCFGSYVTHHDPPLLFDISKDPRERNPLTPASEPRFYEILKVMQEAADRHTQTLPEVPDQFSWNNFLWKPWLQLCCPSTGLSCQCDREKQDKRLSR
The series can be described thus: cell-based or functional assay.

Series [4] concerns the molecule itself. The experiment in a line: size exclusion chromatography (Superdex 200), non-reducing SDS-PAGE and western blot with FGE antiserum. How it is done: FIG. 16: Separation of the recombinant fl-FGE-R69A/R72A monomer and dimer by size-exclusion chromatography. (A) The pooled elution fractions from Ni-NTA purification (SM) were further purified in a Superdex (SD200 10/300 GL) column using Ettan LC system (GE health care). The eluted material in 0.5 ml of running buffer (20 mM Tris, pH 8.0 containing 200 mM NaCl) were collected and analyzed in SDS-PAGE under reducing conditions followed by coomassie staining (B) Equal volume of elution fractions obtained as shown in ‘(A)’ were resolved in SDS-PAGE under non-reducing conditions followed by western blot and membrane decorated with FGE anti-serum. (SM: starting material; FGE: monomer; FGE2: dimer).
(In general: Size exclusion chromatography separates by hydrodynamic size, large species first.)

In series [5] the target is T3, 23 amino acid substrate peptide Ac-MTDFYVPVSLCTPSRAALLTGRS-NH2 (SEQ ID NO: 46).
T3 chain: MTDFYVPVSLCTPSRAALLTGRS

T1 sequence (P09958 108-794): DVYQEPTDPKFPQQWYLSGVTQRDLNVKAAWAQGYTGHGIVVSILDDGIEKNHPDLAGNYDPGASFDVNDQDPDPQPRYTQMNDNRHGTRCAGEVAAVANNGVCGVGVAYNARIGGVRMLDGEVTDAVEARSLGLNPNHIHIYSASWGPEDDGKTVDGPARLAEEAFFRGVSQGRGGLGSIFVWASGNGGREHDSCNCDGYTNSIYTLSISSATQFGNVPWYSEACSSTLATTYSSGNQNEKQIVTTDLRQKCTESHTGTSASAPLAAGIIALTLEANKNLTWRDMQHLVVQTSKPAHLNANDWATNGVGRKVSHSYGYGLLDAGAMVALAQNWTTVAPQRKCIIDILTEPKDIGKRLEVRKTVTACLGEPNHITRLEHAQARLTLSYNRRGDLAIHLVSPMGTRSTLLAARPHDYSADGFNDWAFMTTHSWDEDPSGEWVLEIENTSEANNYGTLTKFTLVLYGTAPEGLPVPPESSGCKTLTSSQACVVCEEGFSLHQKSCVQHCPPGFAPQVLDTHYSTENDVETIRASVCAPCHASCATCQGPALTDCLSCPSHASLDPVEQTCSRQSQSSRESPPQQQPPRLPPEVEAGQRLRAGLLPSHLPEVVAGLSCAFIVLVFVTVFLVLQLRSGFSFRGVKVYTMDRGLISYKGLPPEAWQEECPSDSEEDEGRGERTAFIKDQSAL

For the molecule “decanoyl-RVKR-ChloroMethylKetone (Decanoyl-RVKR-CH2Cl) [RVKR-CMK, reference compound]”, the “inhibition of furin-mediated processing of FGE” value in series [1] is on record as “completely abrogated”. Moreover, the “amount of the truncated form of FGE in the secretions” value in series [2] is “decreased by the inhibitor in a concentration dependent manner”.

B1: FGE-HA (human formylglycine generating enzyme, wild type, C-terminal HA tag, expressed from pBI-FGE-HA in mammalian cells) (enzyme, UniProt Q8NBK3 34-374, looked up, not shown: small tags and cut ends)
chain: SQEAGTGAGAGSLAGSCGCGTPQRPGAHGSSAAAHRYSREANAPGPVPGERQLAHSKMVPIPAGVFTMGTDDPQIKQDGEAPARRVTIDAFYMDAYEVSNTEFEKFVNSTGYLTEAEKFGDSFVFEGMLSEQVKTNIQQAVAAAPWWLPVKGANWRHPEGPDSTILHRPDHPVLHVSWNDAVAYCTWAGKRLPTEAEWEYSCRGGLHNRLFPWGNKLQPKGQHYANIWQGEFPVTNTGEDGFQGTAPVDAFPPNGYGLYNIVGNAWEWTSDWWTVHHSVEETLNPKGPPSGKDRVKKGGSYMCHRSYCYRYRCAARSQNTPDSSASNLGFRCAADRLPTMD
Take B1: the “relative specific activity of STS after co-expression in immortalized MSD Tet-On cells” value in series [3] is around 50 fold.

B2: fl-FGE-R69A/R72A (SEQ ID NO: 4), produced in High Five insect cells (enzyme)
chain: ADEFSQEAGTGAGAGSLAGSCGCGTPQRPGAHGSSAAAHAYSAEANAPGPVPGERQLAHSKMVPIPAGVFTMGTDDPQIKQDGEAPARRVTIDAFYMDAYEVSNTEFEKFVNSTGYLTEAEKFGDSFVFEGMLSEQVKTNIQQAVAAAPWWLPVKGANWRHPEGPDSTILHRPDHPVLHVSWNDAVAYCTWAGKRLPTEAEWEYSCRGGLHNRLFPWGNKLQPKGQHYANIWQGEFPVTNTGEDGFQGTAPVDAFPPNGYGLYNIVGNAWEWTSDWWTVHHSVEETLNPKGPPSGKDRVKKGGSYMCHRSYCYRYRCAARSQNTPDSSASNLGFRCAADRLPTMDSGRGSHHHHHHH
notes: It has four extra N-terminal residues (ADEF), human FGE from S34 with R69A and R72A, and a C-terminal SGRGS-His7; After size exclusion it occurs as a monomer and as a disulfide-bridged dimer; also called Baculo-fl-FGE; recombinant fl-FGE-R69A/R72A
B2: the binding result in series [4] was “binds”. Besides, in series [5], the “specific activity, FGly generation in the 23-aa substrate peptide (MALDI-ToF MS), 2 mM DTT as reductant” value was 24.1±1.7 mU/mg in presence of the control reductant DTT and the “specific activity, FGly generation in the 23-aa substrate peptide (MALDI-ToF MS), 5 mM GSH as reductant” value is on record as 15.6±1.3 mU/mg in presence of GSH.
